{"source": "the RNAGym collection of RNA variant scans (doi:10.7554/elife.80360)", "parents": {"B1": {"name": "CPEB3 Ribozyme (parent)", "chain": "GGGGGCCACAGCAGAAGCGUUCACGUCGCGGCCCCUGUCAGAUUCUGGUGAAUCUGCGAAUUCUGCUGU"}}, "data": [{"variants_of": "B1", "test": "self-cleavage, relative activity (ratio to wild type); higher = more cleavage; co-transcriptional", "values": [{"variant": "A10C G28U", "self-cleavage": 0.12}, {"variant": "A10C G28A", "self-cleavage": 0.125}, {"variant": "C9U C57A", "self-cleavage": 0.32}, {"variant": "C9U C57U", "self-cleavage": 0.38}, {"variant": "A10C G68C", "self-cleavage": 1.04}, {"variant": "A10C G68A", "self-cleavage": 1.03}, {"variant": "A10C G68U", "self-cleavage": 1.03}, {"variant": "C9U C63U", "self-cleavage": 0.982}, {"variant": "C9U C63G", "self-cleavage": 0.88}, {"variant": "C9U C63A", "self-cleavage": 0.968}, {"variant": "C9U G68U", "self-cleavage": 1.02}, {"variant": "C9U G68A", "self-cleavage": 1.05}, {"variant": "A10C U38C", "self-cleavage": 1}, {"variant": "A10C G37U", "self-cleavage": 0.244}, {"variant": "A10C G37C", "self-cleavage": 0.23}, {"variant": "A10C G14A", "self-cleavage": 0.363}, {"variant": "A10C G14U", "self-cleavage": 0.411}, {"variant": "C9U U62G", "self-cleavage": 0.987}, {"variant": "A10G A23U", "self-cleavage": 0.748}, {"variant": "A10G A23G", "self-cleavage": 0.832}, {"variant": "A10C U46A", "self-cleavage": 1.03}, {"variant": "A10C U46G", "self-cleavage": 0.953}, {"variant": "A10C C34U", "self-cleavage": 0.986}, {"variant": "A10C C34A", "self-cleavage": 0.981}, {"variant": "C9G G58U", "self-cleavage": 1.04}, {"variant": "C9G G58C", "self-cleavage": 0.984}, {"variant": "A10C A51G", "self-cleavage": 1.06}, {"variant": "A10C A51C", "self-cleavage": 0.978}, {"variant": "A10C A51U", "self-cleavage": 1.02}, {"variant": "C9U G65U", "self-cleavage": 0.845}, {"variant": "C9U G65C", "self-cleavage": 0.802}, {"variant": "A10G A15U", "self-cleavage": 0.253}, {"variant": "A10G A15C", "self-cleavage": 0.254}, {"variant": "A10G A15G", "self-cleavage": 0.786}, {"variant": "A10C U26C", "self-cleavage": 1.02}, {"variant": "A10C U26A", "self-cleavage": 0.943}, {"variant": "A10C U26G", "self-cleavage": 0.885}, {"variant": "C9G U46A", "self-cleavage": 1.03}, {"variant": "C9U A15C", "self-cleavage": 0.989}, {"variant": "C9U U44A", "self-cleavage": 1.02}, {"variant": "C9U U44C", "self-cleavage": 0.997}, {"variant": "C9U C34A", "self-cleavage": 1.01}, {"variant": "C9U C34G", "self-cleavage": 1.01}, {"variant": "A10C C12G", "self-cleavage": 0.659}, {"variant": "A10C C12U", "self-cleavage": 0.882}, {"variant": "A10C C12A", "self-cleavage": 0.439}, {"variant": "A10C C18G", "self-cleavage": 0.196}, {"variant": "A10G C39U", "self-cleavage": 0.633}, {"variant": "A10G C39A", "self-cleavage": 0.42}, {"variant": "A10G C39G", "self-cleavage": 0.595}, {"variant": "C9G G68U", "self-cleavage": 1.02}, {"variant": "C9G G68A", "self-cleavage": 1.05}, {"variant": "C9G G68C", "self-cleavage": 0.997}, {"variant": "A10G A59U", "self-cleavage": 0.647}, {"variant": "A10G A59C", "self-cleavage": 0.517}, {"variant": "A10C C45U", "self-cleavage": 1}, {"variant": "A10C C45A", "self-cleavage": 0.97}, {"variant": "C9G U38G", "self-cleavage": 0.343}, {"variant": "C9G U38A", "self-cleavage": 0.988}, {"variant": "A10G A51U", "self-cleavage": 0.825}, {"variant": "A10G A51G", "self-cleavage": 0.857}, {"variant": "A10G A51C", "self-cleavage": 0.73}, {"variant": "C9G G65U", "self-cleavage": 0.65}, {"variant": "C9G G65C", "self-cleavage": 0.585}, {"variant": "C9G G65A", "self-cleavage": 0.968}, {"variant": "A10C A42U", "self-cleavage": 0.921}, {"variant": "C9U C45A", "self-cleavage": 1.01}, {"variant": "C9U C45U", "self-cleavage": 1.01}, {"variant": "C9U G37A", "self-cleavage": 0.364}, {"variant": "A10C U53A", "self-cleavage": 0.976}, {"variant": "A10C U53C", "self-cleavage": 0.863}, {"variant": "C9U U61G", "self-cleavage": 0.985}, {"variant": "C9U U61A", "self-cleavage": 1}, {"variant": "C9U G47A", "self-cleavage": 1.06}, {"variant": "A10C U49C", "self-cleavage": 1.04}, {"variant": "A10C U49A", "self-cleavage": 1.02}, {"variant": "C9U G58C", "self-cleavage": 1.02}, {"variant": "A10C G19A", "self-cleavage": 0.162}, {"variant": "A10C G31A", "self-cleavage": 0.968}, {"variant": "A10C G31U", "self-cleavage": 0.913}, {"variant": "C9U C66A", "self-cleavage": 0.968}, {"variant": "C9U C66U", "self-cleavage": 1.05}, {"variant": "C9U G28C", "self-cleavage": 0.173}, {"variant": "C9U G28A", "self-cleavage": 0.227}, {"variant": "C9U A42C", "self-cleavage": 1.03}, {"variant": "C9U A42U", "self-cleavage": 0.997}, {"variant": "C9U A42G", "self-cleavage": 0.96}, {"variant": "A10C U44A", "self-cleavage": 0.959}, {"variant": "A10C U44C", "self-cleavage": 0.92}, {"variant": "A10C G30A", "self-cleavage": 0.994}, {"variant": "A10C G30U", "self-cleavage": 0.753}, {"variant": "A10C G30C", "self-cleavage": 0.923}, {"variant": "C9G U61A", "self-cleavage": 1.01}, {"variant": "C9G U61C", "self-cleavage": 0.83}, {"variant": "A10C A60C", "self-cleavage": 0.28}, {"variant": "A10C A60U", "self-cleavage": 0.484}, {"variant": "A10C A60G", "self-cleavage": 0.853}, {"variant": "A10G C45U", "self-cleavage": 0.901}, {"variant": "A10G C45A", "self-cleavage": 0.784}, {"variant": "C9U C32A", "self-cleavage": 1.02}, {"variant": "C9U C32G", "self-cleavage": 0.838}, {"variant": "C9U G11C", "self-cleavage": 0.927}, {"variant": "C9U G11A", "self-cleavage": 0.971}, {"variant": "A10C U67C", "self-cleavage": 1.01}, {"variant": "A10C U67G", "self-cleavage": 1.03}, {"variant": "A10C G47U", "self-cleavage": 1.01}, {"variant": "A10C G47A", "self-cleavage": 1.04}, {"variant": "C9G U64C", "self-cleavage": 0.864}, {"variant": "C9G U64A", "self-cleavage": 0.884}, {"variant": "C9U A59G", "self-cleavage": 0.986}, {"variant": "A10G G11C", "self-cleavage": 0.79}, {"variant": "A10G G11U", "self-cleavage": 0.743}, {"variant": "A10G G11A", "self-cleavage": 0.143}, {"variant": "C9U G48A", "self-cleavage": 1.03}, {"variant": "C9U G48U", "self-cleavage": 1.03}, {"variant": "A10C A40U", "self-cleavage": 0.867}, {"variant": "A10C A40C", "self-cleavage": 0.378}, {"variant": "C9U G41A", "self-cleavage": 0.923}, {"variant": "C9U G19U", "self-cleavage": 0.855}, {"variant": "C9U G19A", "self-cleavage": 0.249}, {"variant": "C9U G50C", "self-cleavage": 1.02}, {"variant": "C9U G50U", "self-cleavage": 1}, {"variant": "C9G U62G", "self-cleavage": 0.849}, {"variant": "C9G U62A", "self-cleavage": 0.977}, {"variant": "C9G U62C", "self-cleavage": 0.96}, {"variant": "A10G C57A", "self-cleavage": 0.322}, {"variant": "A10G C57U", "self-cleavage": 0.284}, {"variant": "A10G C57G", "self-cleavage": 0.199}, {"variant": "A10C C32A", "self-cleavage": 0.908}, {"variant": "A10C C32U", "self-cleavage": 1.04}, {"variant": "A10C C33G", "self-cleavage": 0.988}, {"variant": "A10C C33A", "self-cleavage": 0.965}, {"variant": "A10C U69C", "self-cleavage": 1.05}, {"variant": "A10C U69A", "self-cleavage": 1.06}, {"variant": "A10C U69G", "self-cleavage": 1.05}, {"variant": "C9G U55C", "self-cleavage": 0.877}, {"variant": "C9G U55G", "self-cleavage": 0.865}, {"variant": "C9U U53G", "self-cleavage": 0.984}, {"variant": "C9U U53A", "self-cleavage": 0.961}, {"variant": "A10C C57G", "self-cleavage": 0.292}, {"variant": "A10C C57A", "self-cleavage": 0.351}, {"variant": "A10C C57U", "self-cleavage": 0.275}, {"variant": "A10G C32G", "self-cleavage": 0.762}, {"variant": "C9U C35U", "self-cleavage": 0.982}, {"variant": "C9U C35A", "self-cleavage": 0.342}, {"variant": "C9U C35G", "self-cleavage": 0.76}, {"variant": "C9U A60G", "self-cleavage": 0.983}, {"variant": "C9U A60C", "self-cleavage": 0.303}, {"variant": "A10C C63A", "self-cleavage": 0.676}, {"variant": "A10C C63U", "self-cleavage": 1.02}, {"variant": "A10G G28A", "self-cleavage": 0.254}, {"variant": "A10G G28U", "self-cleavage": 0.142}, {"variant": "C9U U69G", "self-cleavage": 1.07}, {"variant": "C9U U69A", "self-cleavage": 1.03}, {"variant": "C9U U26C", "self-cleavage": 0.999}, {"variant": "A10G C33A", "self-cleavage": 0.926}, {"variant": "A10C C29G", "self-cleavage": 0.165}, {"variant": "A10C C29A", "self-cleavage": 0.596}, {"variant": "A10C G58U", "self-cleavage": 0.999}, {"variant": "A10C G58C", "self-cleavage": 0.965}, {"variant": "C9U C27A", "self-cleavage": 0.891}, {"variant": "C9U C27U", "self-cleavage": 0.788}, {"variant": "C9G U44A", "self-cleavage": 0.956}, {"variant": "C9G U44C", "self-cleavage": 0.954}, {"variant": "C9U A10C", "self-cleavage": 1.06}, {"variant": "C9U A10G", "self-cleavage": 1.04}, {"variant": "C9U A10U", "self-cleavage": 0.987}]}]}
